Experimental data as given in the supplement of paper PMC10567573.
± gives the standard deviation.

Experiment: protein stability index of a GFP-peptide fusion (GPS, HEK-293T) (PSI 1-6); higher = more stable
[1] = treatment: DMSO, c terminus: a fixed tail appended
[2] = treatment: MLN4924 1 uM, 8 h, c terminus: a fixed tail appended
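Also: 24-mer peptide tiles fused after GFP, lentivirally expressed, FACS-sorted into six equal bins by GFP/DsRed ratio, decoded by Illumina sequencing, PSI is the read-weighted mean bin number.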

| Sequence | protein stability index [1] | protein stability index [2] | protein stability index (treatment: DMSO, c terminus: native) | protein stability index (treatment: MLN4924 1 uM, 8 h, c terminus: native) |
| --- | --- | --- | --- | --- |
| GVGKAIEEELQEIASEPTNKHLFY [MATN2] | 4.75 ± 0.37 | 4.46 ± 0.11 |  |  |
| GIVGGFTQMIREGGARSLWRGNGI [SLC25A25] | 2.22 ± 0.093 | 2.27 ± 0.2 |  |  |
| YMDRFTVAGVLPDIEQFFNIGDSS [SPNS1] | 2.71 ± 0.34 | 2.99 ± 0.18 |  |  |
| RGFSGGILAFLVLEAVAGALVVAL [TSPAN10] | 2.78 ± 0.9 | 2.43 ± 0.41 |  |  |
| IRCVYILDPWFAGSSNVGINRWRF [CRY1] | 3.13 ± 0.51 | 3.06 ± 0.51 |  |  |
| FKCRNKTSGQVVAVKKFVESEDDP [CDKL4] | 4.7 ± 0.089 | 4.94 ± 0.28 |  |  |
| NVADTLVLADLHSAEQLKAQAIDF [SPOPL] | 3.46 ± 0.16 | 3.77 ± 0.57 |  |  |
| YNLTILDCLQGIRKGLQHGFFDFE [CDC14A] | 2.68 ± 1.1 | 2.71 ± 0.89 |  |  |
| DHLGWVARGTGSGEDSSTSSSTPL [RTN2] | 4.73 ± 0.18 | 4.54 ± 0.25 |  |  |
| EGVISVSEDRTVRVWLKRDSGQYW [WDFY2] | 2.17 ± 0.2 | 2.3 ± 0.12 |  |  |
| VKRRRTASLSNQECQLYPRRSQQQ [SNURF] | 4.43 ± 0.18 | 4.45 ± 0.19 |  |  |
| CLGLSYDGLLGDNQIMPKAGLLII [MAGEA3] | 3.12 ± 0.68 | 2.73 ± 0.61 |  |  |
| VKTWFQNQRMKSKRWQKNNWPKNS [NANOGP8] | 2.21 ± 0.57 | 2.42 ± 0.38 |  |  |
| HTLPVNRETLKRKVSGNRCASPVT [ESR2] | 4.07 ± 0.14 | 4.24 ± 0.15 |  |  |
| LSLLELLELLLDASALTLVLGGRR [SCNN1D] | 2.99 ± 0.95 | 2.32 ± 0.56 |  |  |
| RTQEEKLEHVRALIKKYSDHLENV [TRIM55] | 3.24 ± 0.31 | 3.56 ± 0.27 |  |  |
| LVGKPKIFIIQACRGNQHDVPVIP [CASP6] | 2.56 ± 0.66 | 2.1 ± 0.2 |  |  |
| DYIRRYLPVLRGFPAKYIYDPWNA [CRY1] | 2.53 ± 0.5 | 2.16 ± 0.2 |  |  |
| GPMEEVERQVLPDPEVLEAVGDRQ [PBXIP1] | 5.62 ± 0.25 | 5.59 ± 0.21 |  |  |
| DRKARKPLVEKKRRARINESLQEL [HES6] | 4.37 ± 0.22 | 4.71 ± 0.13 |  |  |

| Sequence | protein stability index [1] | protein stability index [2] | protein stability index (treatment: DMSO, c terminus: native) | protein stability index (treatment: MLN4924 1 uM, 8 h, c terminus: native) |
| --- | --- | --- | --- | --- |
| KKAFVWARNIGFKVNSKKMLGKYN [ACSBG2] | 2.5 ± 0.46 | 2.35 ± 0.38 |  |  |
| HLAPSEAKAADSPTRNDLESGLGH | 5.14 ± 0.34 | 5.37 ± 0.058 |  |  |
| FKRTIQGSIEYSCPASNECEITKR [ESRRA] | 3.88 ± 0.23 | 4.19 ± 0.23 |  |  |
| ANYTCVAMSTLGVIEAIAQITVKA [PTPRD] | 2.63 ± 0.16 | 3.29 ± 0.93 |  |  |
| RKPDYTAYVAMIPQCIKEEDTPSD [ATF4] | 4.47 ± 0.25 | 4.62 ± 0.21 |  |  |
| DEAQGACLQQKQVVAEAQTRVSQL [LRRC45] | 5.23 ± 0.12 | 5.09 ± 0.31 |  |  |
| VFNLFRTMGLRHLPVVNAVGEIVG [CLCN6] | 2.45 ± 0.21 | 2.29 ± 0.18 |  |  |
| ECGKAFSQSSYLSQHRRIHSGEKP [ZNF232] | 3.57 ± 0.28 | 3.61 ± 0.15 |  |  |
| FGEDYYGPSRSRHRRRSRERGPYR [CLK3] | 3.27 ± 0.78 | 4.29 ± 0.89 |  |  |
| ESQVKSLCEKAKEILTKESNVQEV [PPP2CA] | 5.45 ± 0.11 | 5.18 ± 0.18 |  |  |
| LRLRKERVSDVQKVLQGGEQEIQF [PKD2L1] | 3.74 ± 0.17 | 3.77 ± 0.34 |  |  |
| RRVWSPPRVHKVEMGFGGGGGAN [ZBTB22] |  |  | 4.13 ± 0.3 | 3.92 ± 0.14 |
| YRRVNELLLSILNPTRQDESIQRI [ZER1] | 2.46 ± 0.14 | 2.66 ± 0.53 |  |  |
| GGNVECIKLLQSSGADFHKKDKCG [ANKRD44] | 4.48 ± 0.17 | 4.38 ± 0.1 |  |  |
| KLYGQRERVWALAQEKAADVQARL [FCHSD1] | 3.51 ± 0.32 | 3.49 ± 0.3 |  |  |
| LPPYPPYFEGAPFPHPLWLRDTYK [PWWP2B] | 2.54 ± 0.39 | 2.5 ± 0.12 |  |  |
| WFQDPTRFTGTMDAFVKIVRHEGT [SLC25A39] | 2.17 ± 0.25 | 2.23 ± 0.37 |  |  |
| FFRKLLDCCQVSAPNRFFQKLNVF [NLN] | 2.02 ± 0.073 | 2.47 ± 0.74 |  |  |
| SLMDLAIEEGFNPVQASQLEEEFD [NFE2L1] | 5.35 ± 0.35 | 5.49 ± 0.12 |  |  |
| GGSGGGAGGAGGGVTEEQEGFADG [JUNB] | 5.5 ± 0.087 | 5.42 ± 0.43 |  |  |

| Sequence | protein stability index [1] | protein stability index [2] | protein stability index (treatment: DMSO, c terminus: native) | protein stability index (treatment: MLN4924 1 uM, 8 h, c terminus: native) |
| --- | --- | --- | --- | --- |
| TRPKKMGSQLPKPRMLRESGHGDA [FATE1] | 4.53 ± 0.19 | 4.53 ± 0.22 |  |  |
| LIKALKIFQEKHVNLLHIESRKSK [TPH1] | 2.28 ± 0.12 | 2.22 ± 0.23 |  |  |
| TSFCGQQFILERGEYPRWDAWSGS [CRYBA1] | 2.77 ± 0.68 | 2.65 ± 0.39 |  |  |
| FVQRSGNYFVTMFDDYSATLPLTL [SLC6A17] | 2.65 ± 0.18 | 2.65 ± 0.55 |  |  |
| SEKTDESDTIPYLKKFLYNFDNPW [MIA2] | 2.78 ± 0.14 | 2.11 ± 0.039 |  |  |
| SILLCLLASGLVVFFLFPHSVLVD [TMEM106C] | 3 ± 0.49 | 2.56 ± 0.044 |  |  |
| EALGLEAEGAVPETQTLTGWSKGF [RHOBTB1] | 3.79 ± 0.098 | 4.05 ± 0.27 |  |  |
| DEGDEPMPIPEDLSTTSGGQQSSK [IKZF1] | 5.42 ± 0.65 | 5.56 ± 0.28 |  |  |
| FREDGAYEFNPDFLEEAHEWNQKR [N4BP2L1] | 4.71 ± 0.16 | 4.53 ± 0.26 |  |  |
| RFYFENLLAKNSKPIHTTILNPHV [CAMK2B] | 2.2 ± 0.11 | 2.23 ± 0.23 |  |  |
| GLPGSFIKEVQKGGPADLAGLEDE [PDZK1] | 5.59 ± 0.14 | 5.37 ± 0.25 |  |  |
| QFISRFLEGQSGVTIKHVACGDFF [NEK8] | 2.51 ± 0.47 | 2.39 ± 0.37 |  |  |
| EDWLSHALSRKKSQGLAREQHAGT [FBF1] | 3.9 ± 0.23 | 4.04 ± 0.14 |  |  |
| VVCASYEDYGHWLLCLRAVTHREG [PLEKHN1] | 2.52 ± 0.56 | 2.62 ± 0.49 |  |  |
| GLSPYSDYEFRVVAVNNIGRGPPS [PTPRD] | 2.41 ± 0.35 | 3.14 ± 0.033 |  |  |
| RLSNNQRYLFLDGDSHYEIEIVHI [ZFYVE21] | 3.21 ± 0.56 | 2.21 ± 0.53 |  |  |
| LKAKKVWYDMFRDAAAILLDEQNK [ZMAT5] | 2.38 ± 0.1 | 2.26 ± 0.17 |  |  |
| MMTLLMKKDTLTEEETQFYISETV [STK38L] | 3.16 ± 0.23 | 3.3 ± 0.31 |  |  |
